{"source": "patent US20180201681A1", "key": {"[1]": {"molecular_target": "human CD83 on the cell surface (KM-H2, L428, FDCP1 and BB88 cells transfected with full length human CD83) (human) (UniProt Q01151)", "sequence (Q01151 20-205)": "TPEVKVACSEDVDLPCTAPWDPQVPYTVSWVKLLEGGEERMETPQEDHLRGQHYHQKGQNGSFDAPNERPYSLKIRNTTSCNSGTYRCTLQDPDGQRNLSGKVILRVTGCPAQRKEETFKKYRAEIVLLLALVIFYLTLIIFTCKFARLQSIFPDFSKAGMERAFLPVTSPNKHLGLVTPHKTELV", "assay": "competition by flow cytometry on KM-H2 cells, antibodies added at the same time; reduction of the 3C12-RPE signal in the presence of HB15a-FITC"}, "[2]": {"molecular_target": "human CD83 on the cell surface (KM-H2, L428, FDCP1 and BB88 cells transfected with full length human CD83) (human) (UniProt Q01151)", "assay": "flow cytometry on the CD83+ cell line KM-H2, background control"}}}
{"substance": "HB15a (commercial anti-human CD83 mAb, Immunotech) (antibody)", "values": [{"measurement": "Reduction in 3C12 MFI (%)", "setting": "[1]", "value": 24.7, "unit": "%"}]}
{"substance": "isotype control (human IgG1) (antibody)", "values": [{"measurement": "MFI", "setting": "[2]", "value": 335, "unit": "MFI"}]}
